In one assay the target is human IL-6 (Homo sapiens, UniProt P05231). Briefly: SPR.
The target of the next assay is cynomolgus IL-6 (cynomolgus, UniProt P79341). Briefly: SPR. For orientation: Surface plasmon resonance follows binding to a sensor surface in real time, without labels.
cynomolgus IL-6, sequence (P79341 28-212): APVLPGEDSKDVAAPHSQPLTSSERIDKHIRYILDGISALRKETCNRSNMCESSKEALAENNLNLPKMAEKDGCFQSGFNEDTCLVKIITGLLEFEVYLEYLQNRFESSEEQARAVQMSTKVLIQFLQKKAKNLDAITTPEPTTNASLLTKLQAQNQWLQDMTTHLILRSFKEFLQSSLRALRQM

human IL-6, sequence (P05231 30-212): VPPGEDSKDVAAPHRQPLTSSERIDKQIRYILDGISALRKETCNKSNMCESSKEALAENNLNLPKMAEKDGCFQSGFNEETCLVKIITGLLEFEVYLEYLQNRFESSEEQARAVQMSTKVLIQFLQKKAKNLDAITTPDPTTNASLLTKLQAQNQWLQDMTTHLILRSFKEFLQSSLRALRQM

B1: olokizumab (antibody, V domains shown)
VH: EVQLVESGGGLVQPGGSLRLSCAASGFNFNDYFMNWVRQAPGKGLEWVAQMRNKNYQYGTYYAESLEGRFTISRDDSKNSLYLQMNSLKTEDTAVYYCARESYYGFTSYWGQGTLVTVSS
VL: DIQMTQSPSSLSASVGDRVTITCQASQDIGISLSWYQQKPGKAPKLLIYNANNLADGVPSRFSGSGSGTDFTLTISSLQPEDFATYYCLQHNSAPYTFGQGTKLEIK
In the case of B1, in the assay with human IL-6, the affinity, expressed as Kd, was 0.01 nM. Besides, in the assay with cynomolgus IL-6, the binding result is reported as “binds”.

Source of the values: article PMC4011921 (mAbs, 2014).
